# Measured values taken from patent publication US20200255508A1 (AbbVie / Abbott, published 2020).
# Read-outs that look alike come from different tables or passages of the source.
# Tests used:
# [1] = biological target: T1, mouse DLL4 on the cell surface (mouse, UniProt Q9JI71 27-686); assay: FACS on DLL4 cells
# T1 construct: whole, on cells; also called HEK293-mDLL4; mDLL4-293G
# Procedure: (§1) Stable cell lines overexpressing cell-surface DLL4 were harvested from tissue culture flasks, washed four times and resuspended in phosphate buffered saline (PBS) containing 1% bovine serum albumin and 1 mM CaCl₂ (FACS buffer), 1.5×10³ cells were incubated with antibodies at various concentrations in FACS buffer for 60 minutes on ice. Cells were washed twice and 50 μL of R-phycoerythrin-conjugated anti-rat IgG. […] Following an incubation on ice (4° C., 60 minutes), cells were washed three times and resuspended in FACS buffer. Fluorescence was measured using a Becton Dickinson FACSCalibur-HTS (Becton Dickinson, San Jose. Calif., US). Data were analyzed using Graphpad Prism software and EC₅₀ values were reported as the concentration of antibody to achieve 50% of maximal DLL4 antibodies binding to DLL4 expressing cells.
# [2] = biological target: T2, human DLL4 on the cell surface (human, UniProt Q9NR61 27-685); assay: FACS on DLL4 cells
# T2 construct: whole, on cells; also called HEK293-hDLL4; hDLL4-293G
# Procedure: as §1
# [3] = biological target: T3, mouse DLL4-his (mouse, UniProt Q9JI71 27-532); assay: ELISA on DLL4-his
# T3 construct: extracellular domain; not shown: his tag
# T3 sequence (Q9JI71 27-532): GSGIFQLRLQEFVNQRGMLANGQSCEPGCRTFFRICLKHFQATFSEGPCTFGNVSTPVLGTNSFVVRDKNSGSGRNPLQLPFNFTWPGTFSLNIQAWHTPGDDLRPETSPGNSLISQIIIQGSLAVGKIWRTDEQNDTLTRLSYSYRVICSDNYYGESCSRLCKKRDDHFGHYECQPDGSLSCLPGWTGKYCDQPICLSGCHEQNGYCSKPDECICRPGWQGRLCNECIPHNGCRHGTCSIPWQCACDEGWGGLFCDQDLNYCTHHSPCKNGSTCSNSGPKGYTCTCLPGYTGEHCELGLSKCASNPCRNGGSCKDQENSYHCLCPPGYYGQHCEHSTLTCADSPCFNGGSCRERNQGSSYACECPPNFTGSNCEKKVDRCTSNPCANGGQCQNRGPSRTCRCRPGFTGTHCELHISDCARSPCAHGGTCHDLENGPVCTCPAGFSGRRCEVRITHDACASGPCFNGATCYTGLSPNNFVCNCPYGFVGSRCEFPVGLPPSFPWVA
# [4] = biological target: T4, human DLL4-his (human, UniProt Q9NR61 27-529); assay: ELISA on DLL4-his
# T4 construct: extracellular domain
# Procedure: After the final wash, plates were incubated with 100 μl/well ELISA substrate (Sigma # T8665). The reaction was stopped after 8 minutes at 25° C. with 100 μl/well 1N HCl and the absorbance was read at 450 nm. Data were analyzed using Graphpad Prism software and EC50 values were reported.
# [5] = biological target: T5, mouse DLL4 extracellular domain (mouse, UniProt Q9JI71 27-532); assay: Biacore SPR
# T5 construct: extracellular domain; also called muDLL4 ECD; Mouse DLL4 ECD
# T5 sequence (Q9JI71 27-532): as above
# Procedure: The BIACORE® surface plasmon resonance assay (Biacore, Inc., Piscataway, N.J., US) determines the affinity of antibodies with kinetic measurements of on-rate and off-rate constants. Binding of DLL4 antibodies to a purified recombinant DLL4 extracellular domain is determined by surface plasmon resonance-based measurements with a Biacore® instrument (either a Biacore 2000, Biacore 3000, or Biacore T100, GE Healthcare, Piscataway, N.J. US) using running buffer HBS-EPB (10 mM HEPES [pH 7.4], 150 mM NaCl, 3 mM EDTA, 0.1 mg/ml BSA and 0.005% surfactant P20) at 25° C. For example, approximately 9000 RU of goat anti-human Fc specific polyclonal antibody (Thermo Fisher Scientific Inc., Rockford, Ill., US) diluted in 10 mM sodium acetate (pH 4.5) is directly immobilized across a CM5 research grade biosensor chip using a standard amine coupling kit according to manufacturer's instructions and procedures at 25 μg/ml. Unreacted moieties on the biosensor surface are blocked with ethanolamine. For kinetic analysis, rate equations derived from the 1:1 Langmuir binding model are fitted simultaneously to multiple antigen injections (using global fit analysis) with the use of Scrubber 2 (BioLogic Software). […] The equilibrium dissociation constant KD (M) of the reaction between antibodies and the target antigen is then calculated from the kinetic rate constants by the following formula: KD=Koff/Kₒₙ. Binding is recorded as a function of time and kinetic rate constants are calculated. In this assay, on-rates as fast as 10⁶ M⁻¹s⁻¹ and off-rates as slow as 10⁻⁶ s⁻¹ can be measured.
# [6] = biological target: T6, human DLL4 extracellular domain (human, UniProt Q9NR61 27-529); assay: Biacore SPR (*historic data); historic data, not from the same run as the other cells
# T6 construct: extracellular domain; coated on plates in the sVEGFR1 assay; also called huDLL4 ECD; Human DLL4 ECD
# [7] = biological target: T6, human DLL4 extracellular domain; assay: competition ELISA, competitor huNotch-1
# Procedure: (§2) Plates were then washed 3 times with wash buffer (PBS, 0.05% Tween-20) and blocked with 200 μl/well blocking buffer (D-PBS, 1% BSA, 1 mM CaCl₂, 0.05% Tween-20) for 1 hour at 25° C. […] Assay plates were washed after blocking, and incubated with DLL4/antibody mixtures (100 μl/well, 1 hour at 25° C. with shaking). […] After a final wash, plates were developed using 100 μl/well substrate (TMB Sigma # T8665), and the reaction was stopped after an 8-minute incubation at 25° C. (for muDLL4 ELISA) and after 20 minute incubation at 25° C. (for huDLL4 ELISA) using 100 μl/well 1N HCl, and the absorbance was read at 450 nm.
# [8] = biological target: T5, mouse DLL4 extracellular domain; assay: competition ELISA, competitor huNotch-1
# Procedure: as §2
# [9] = biological target: T1, mouse DLL4 on the cell surface; assay: competition FACS, competitor huNotch-1
# Procedure: (§3) Notch blocking assay: Briefly, stable cell lines overexpressing cell-surface DLL4 were harvested from tissue culture flasks and re-suspended in phosphate buffered saline (PBS) containing 1% bovine serum albumin and 1 mM CaCl₂ (FACS buffer). HEK293-hDLL4 or HEK293-mDLL4 cells were dispensed into 96-well plate (v-bottom) at 1.5×10⁵ cells/well in FACS buffer. […] After washing the cells two times with FACS buffer, 50 μL of R-phycoerythrin-conjugated streptavidin (1:150 dilution in FACS buffer) (Jackson ImmunoResearch, West Grove, Pa., US, catalog no. 016-110-084) were added. Following an incubation on ice (4° C., 60 minutes), cells were washed three times and resuspended in FACS buffer. Fluorescence was measured using a Becton Dickinson FACSCalibur-HTS (Becton Dickinson, San Jose. Calif.).
# [10] = biological target: T2, human DLL4 on the cell surface; assay: competition FACS, competitor huNotch-1
# Procedure: as §3
# [11] = biological target: T1, mouse DLL4 on the cell surface; assay: competition FACS, competitor huNotch-1; remark: listed apart in the source
# Procedure: as §3
# [12] = biological target: T2, human DLL4 on the cell surface; assay: competition FACS, competitor huNotch-1; remark: listed apart in the source
# Procedure: as §3
# [13] = biological target: T1, mouse DLL4 on the cell surface; assay: FACS on DLL4 cells; remark: listed apart in the source
# Procedure: as §1
# [14] = biological target: T2, human DLL4 on the cell surface; assay: FACS on DLL4 cells; remark: listed apart in the source
# Procedure: as §1
# [15] = biological target: T6, human DLL4 extracellular domain; assay: capture ELISA
# Procedure: (§4) ELISA plates were washed 3 times with wash buffer (PBS, 0.05% Tween-20) and then blocked with 200 ml/well blocking buffer (D-PBS, 1% BSA, 1 mM CaCl₂, 0.05% Tween-20) for 1 hour at 25° C. Plates were washed 3 times and incubated with 100 μl/well DLL4 antibodies (0.0001-100 nM, 10-fold serial dilution in blocking buffer) for 1 hour at 25° C., and then washed again 3 times. […] The reaction was stopped after 2 minutes at 25° C. with 100 μl/well 2 N H2SO₄ and the absorbance was read at 450 nm. Data were analyzed using Graphpad Prism software and EC₅₀ values were reported.
# [16] = biological target: T5, mouse DLL4 extracellular domain; assay: capture ELISA
# Procedure: as §4
# [17] = biological target: T6, human DLL4 extracellular domain; assay: cell-based or functional assay
# [18] = biological target: T2, human DLL4 on the cell surface; assay: cell-based or functional assay
# [19] = biological target: T5, mouse DLL4 extracellular domain; assay: cell-based or functional assay
# [20] = biological target: T7, rat DLL4 extracellular domain (rat, UniProt D3ZHH1 28-530); assay: Biacore SPR
# T7 construct: extracellular domain; also called ratDLL4 ECD
# T7 sequence (D3ZHH1 28-530): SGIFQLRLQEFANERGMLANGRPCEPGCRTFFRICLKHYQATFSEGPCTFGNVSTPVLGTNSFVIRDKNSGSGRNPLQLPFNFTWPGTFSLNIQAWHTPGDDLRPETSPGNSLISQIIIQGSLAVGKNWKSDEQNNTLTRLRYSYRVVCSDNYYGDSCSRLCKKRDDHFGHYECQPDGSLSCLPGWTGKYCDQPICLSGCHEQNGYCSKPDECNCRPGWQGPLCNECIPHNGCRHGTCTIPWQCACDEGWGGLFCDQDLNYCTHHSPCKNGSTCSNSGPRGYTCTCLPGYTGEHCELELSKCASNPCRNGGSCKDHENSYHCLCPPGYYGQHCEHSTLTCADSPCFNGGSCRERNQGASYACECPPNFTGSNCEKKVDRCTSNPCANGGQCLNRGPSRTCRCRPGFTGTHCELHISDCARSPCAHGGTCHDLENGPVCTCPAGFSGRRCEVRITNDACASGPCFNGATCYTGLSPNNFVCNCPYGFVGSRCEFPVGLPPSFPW
# Procedure: (§5) Binding of DLL4 antibodies to a purified recombinant DLL4 extracellular domain is determined by surface plasmon resonance-based measurements with a Biacore® instrument (either a Biacore 2000, Biacore 3000, or Biacore T100, GE Healthcare, Piscataway, N.J. US) using running buffer HBS-EPB (10 mM HEPES [pH 7.4], 150 mM NaCl, 3 mM EDTA, 0.1 mg/ml BSA and 0.005% surfactant P20) at 25° C. For example, approximately 9000 RU of goat anti-human Fc specific polyclonal antibody (Thermo Fisher Scientific Inc., Rockford, Ill., US) diluted in 10 mM sodium acetate (pH 4.5) is directly immobilized across a CM5 research grade biosensor chip using a standard amine coupling kit according to manufacturer's instructions and procedures at 25 μg/ml. Unreacted moieties on the biosensor surface are blocked with ethanolamine. For kinetic analysis, rate equations derived from the 1:1 Langmuir binding model are fitted simultaneously to multiple antigen injections (using global fit analysis) with the use of Scrubber 2 (BioLogic Software). […] The equilibrium dissociation constant KD (M) of the reaction between antibodies and the target antigen is then calculated from the kinetic rate constants by the following formula: KD=Koff/Kₒₙ. Binding is recorded as a function of time and kinetic rate constants are calculated. In this assay, on-rates as fast as 10⁶ M⁻¹s⁻¹ and off-rates as slow as 10⁻⁶ s⁻¹ can be measured.
# [21] = biological target: T6, human DLL4 extracellular domain; assay: Biacore SPR
# Procedure: as §5
# [22] = biological target: T5, mouse DLL4 extracellular domain; assay: Biacore SPR; remark: listed apart in the source
# Procedure: as §5
# [23] = biological target: T6, human DLL4 extracellular domain; assay: competition ELISA, competitor huNotch-1; remark: listed apart in the source
# Procedure: as §2
# [24] = biological target: T5, mouse DLL4 extracellular domain; assay: competition ELISA, competitor huNotch-1; remark: listed apart in the source
# Procedure: as §2
# [25] = biological target: T6, human DLL4 extracellular domain; assay: Biacore SPR; remark: listed apart in the source
# Procedure: as §5
# [26] = biological target: T5, mouse DLL4 extracellular domain; assay: Biacore SPR; remark: listed apart in the source
# Procedure: as §5
# [27] = biological target: T1, mouse DLL4 on the cell surface; assay: competition FACS, competitor huNotch-1; competition FACS, huNotch-1/DLL4 cells (IC50)
# Procedure: as §3
# [28] = biological target: T2, human DLL4 on the cell surface; assay: FACS on DLL4 cells; remark: listed apart in the source
# [29] = biological target: T2, human DLL4 on the cell surface; assay: competition FACS, competitor huNotch-1; remark: listed apart in the source
# Procedure: as §3
# T1 sequence (Q9JI71 27-686): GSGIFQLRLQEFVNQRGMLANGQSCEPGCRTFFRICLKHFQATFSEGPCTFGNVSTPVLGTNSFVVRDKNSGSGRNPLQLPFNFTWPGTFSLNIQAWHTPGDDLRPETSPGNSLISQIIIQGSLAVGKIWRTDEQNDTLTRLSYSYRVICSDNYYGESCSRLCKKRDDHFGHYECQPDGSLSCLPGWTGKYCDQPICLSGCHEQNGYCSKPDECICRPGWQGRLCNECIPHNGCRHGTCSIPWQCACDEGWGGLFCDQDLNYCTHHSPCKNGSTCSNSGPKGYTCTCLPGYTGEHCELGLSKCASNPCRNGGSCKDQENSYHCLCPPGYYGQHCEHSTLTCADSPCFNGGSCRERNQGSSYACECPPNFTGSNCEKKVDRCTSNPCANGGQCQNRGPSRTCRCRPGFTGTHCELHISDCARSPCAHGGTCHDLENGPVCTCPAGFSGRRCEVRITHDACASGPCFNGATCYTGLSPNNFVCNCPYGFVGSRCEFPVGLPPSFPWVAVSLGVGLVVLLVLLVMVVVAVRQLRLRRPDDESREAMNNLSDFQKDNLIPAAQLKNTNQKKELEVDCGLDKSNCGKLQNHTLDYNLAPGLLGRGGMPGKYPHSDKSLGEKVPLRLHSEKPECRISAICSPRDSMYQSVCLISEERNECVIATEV
binder,measurement,setting,value
"E9-SE1 (antibody, V domains shown, full-length human IgG1) VH: EVQLVESGGGLVQPGGSLRLSCAVSGGSISSSSYYWGWIRQAPGKGLEWIGDIYYTGSTYYNPSLKSRVTISVDTSKNSFYLQMNSLRAEDTAVYYCAREDVILRGGSDYWGQGTLVTVSS VL: LYVLTQPPSVSVSPGQTASITCSGQRLGDKYASWYQQKPGQSPVLVIYEDSKRPSGIPERFSGSNSGDTATLTISGTQTMDEADYLCQAWDRDTGVFGGGTKVTVLG",Kd,[1],1.34 nM
same,Kd,[2],3.45 nM
same,EC50,[3],0.19 nM
same,EC50,[4],0.16 nM
same,Kd,[5],12.8 nM
same,Kd,[6],15.2 nM
same,IC50,[7],2.7 nM
same,IC50,[8],2.9 nM
same,IC50,[9],1.71 nM
same,IC50,[10],8.51 nM
"E9 (antibody, IgG1, V domains shown, also called anti-DLL4 PROfusion antibody E9) VH: EVQLQESGPGLVKPSETLSLTCTVSGGSISSSSYYWGWIRQPPGKGLEWIGDIYYTGSTYYNPSLKSRVTISVDTSKNQFSLKLSSVTAADTAVYYCAREDVILRGGSDYWGQGTLVTVSS VL: SYELTQPPSVSVSPGQTASITCSGQRLGDKYASWYQQKPGQSPVLVIYEDSKRPSGIPERFSGSNSGDTATLTISGTQPMDEADYYCQAWDRDTGVFGYGTRVTVL",IC50,[11],3.2 nM
same,IC50,[12],23.4 nM
same,EC50,[13],0.32 nM
same,EC50,[14],7.23 nM
same,EC50,[15],0.17 nM
same,EC50,[16],0.18 nM
same,"sVEGFR1 Inhibition (IC50, nM) DLL4 ECD/EaHy cells, hu",[17],1 nM
same,"Inhibition of Notch activation via huDLL4 cells, coculture (IC50, nM)",[18],6.2 nM
same,"sVEGFR1 Inhibition (IC50, nM) DLL4 ECD/EaHy cells, mu",[19],0.4 nM
same,Kd,[20],15 nM
same,koff,[20],0.00029 s⁻¹
same,kon,[20],19000 M⁻¹ s⁻¹
same,Kd,[21],3.36 nM
same,koff,[21],6.6e-05 s⁻¹
same,kon,[21],20000 M⁻¹ s⁻¹
same,Kd,[22],16 nM
same,koff,[22],0.00026 s⁻¹
same,kon,[22],18000 M⁻¹ s⁻¹
same,IC50,[23],1.7 nM
same,IC50,[24],2.1 nM
"E9.16 (antibody, V domains shown, also called DLL4-E9-16 hIgG1/L) VH: EVQLQESGPGLVKPSETLSLTCTVSGGSISSSSYYWGWIRQPPGKGLEWIGDIYYTGSTYYNPSLKSRVTISVDTSKNQFSLKLSSVTAADTAVYYCAREDVILRGGSDYWGQGTLVTVSS VL: SYELTQPPSVSVSPGQTASITCSGERLGDKYVSWYQQKPGQSPVLVIYEDFKRPSGIPERFSGSNSGDTATLTISGTQPMDEADYYCQAWDRDTGVFGYGTKVTVL",Kd,[25],2.45 nM
same,koff,[25],3.15e-05 s⁻¹
same,kon,[25],12900 M⁻¹ s⁻¹
same,Kd,[26],8.1 nM
same,koff,[26],0.000148 s⁻¹
same,kon,[26],18300 M⁻¹ s⁻¹
same,IC50,[27],1.1 nM
same,EC50,[28],1.7 nM
same,IC50,[29],12.6 nM
